We go through 14 molecules from patent publication US20170114140A1 (Amgen, published 2017).

To fix the notation:
B1: IL-17RB.Fc (extracellular domain of human IL-17RB fused to the Fc region of human IgG) (Fc fusion, UniProt Q9NRM6 18-292, looked up, not shown: a dimerising Fc or GST)
chain: REPTVQCGSETGPSPEWMLQHDLIPGDLRDLRVEPVTTSVATGDYSILMNVSWVLRADASIRLLKATKICVTGKSNFQSYSCVRCNYTEAFQTQTRPSGGKWTFSYIGFPVELNTVYFIGAHNIPNANMNEDGPSMSVNFTSPGCLDHIMKYKKKCVKAGSLWDPNITACKKNEETVEVNFTTTPLGNRYMALIQHSTIIGFSQVFEPHQKKQTRASVVIPVTGDSEGATVQLTPYFPTCGSDCIRHKGTVVLCPQTGVPFPLDNNKSKPGGWLP
notes: extracellular domain; also called HuIL-17RB: Fc
B2: 4.16.1 (antibody, IgG2, V domains shown)
VH: QVQLVQSGAEVKKPGASVKVSCKASGYTLTSYGISWVRQAPGQGLEWMGWISAYSGNTKYAQKFQGRVTMTTDTSTSTAYMELRSLRSDDTAVYYCARRQLALDYWGQGTLVTVSS
VL: EIVMTQSPATLSVSPGERATLSCRASQSISSNLAWYQQKPGQAPRLLIYGASTRATGIPARFSDNGSGTEFTLTISSLQSEDFAVYFCQQYDTWPLTFGGGTKVEIK
B3: 3.381.1 (antibody, IgG2, V domains shown)
VH: QVQLVQSGAEVKKPGASVKVSCKASGYTFTRYGISWVRQAPGQGLEWMGWISAYSGNTNYAQKLQGRVTMTTDTSTSTAYMELRSLRSDDTAVYYCARRQLYFDYWGQGTLVTVSS
VL: EIVMTQSPATLSVSPGERVTLSCRASQSVSSNLAWFQQKPGQAPRPLIYDASTRAAGIPARFSGSGSGTDFTLTISSLQSEDFAVYYCQQYDNWPLTFGGGTKVEIK
B4: 3.1404.1 (antibody, IgG2, V domains shown)
VH: QVQLVQSGAEVKKPGASVKVSCKASGYTFTRYGISWVRQAPGQGLEWMGWISTYSGNTNYAQKLQGRVTMTTDTSTSTAYMELRSLRSDDTAVYYCARRQLYFDYWGQGTLVTVSS
VL: EIVMTQSPATLSVSPGERATLSCRASQSVSSNLAWFQQKPGQAPRPLIYDASTRATGVPARFSGSGSGTDFTLTISSLQSEDFAVYYCQQYDNWPLTFGGGTKVEIK
B5: 4.393.1 (antibody, V domains shown)
VH: QVQLVQSGAEVKKPGASVKVSCKASGYTFTSYGISWVRQAPGQGLEWMGWISAYNGNTKYAQKLQGRVTMTTDTSTSTVYMELRSLRSDDTAVYYCARKQLVFDYWGQGTLVTVSS
VL: EIVMTQSPATLSVSPGERATLSCRASQSISTSLAWYQQKPGQAPRLLIYGTSTRATGIPARFSGSGSGTEFTLTISSLQSEDFAVYFCQQYDIWPLTFGGGTKVEIK
B6: 4.357.1 (antibody, V domains shown)
VH: QVQLVQSGAEVKKPGASVKVSCKASGYTLTSYGISWVRQAPGQGLEWMGWISTYKGNTNYAQKLQGRVTMTTDTSTSTAYMELRSLRSDDTAVYYCARKQLVFDYWGQGTLVTVSS
VL: EIVMTQSPATLSVSPGERATLSCRASQSISSSLAWYQQKPGQAPRLLIYGASTRATGIPARFSGSGSGTEFTLTISSLQSENFAVYYCQQYDNWPLTFGGGTKVEIK
B7: 1.185.1 (antibody, V domains shown)
VH: QVQLVESGGGVVQPGRSLRLSCAASGINFSSYGMHWVRQAPGKGLEWVAVIWYDGSNKHYADSVKGRFTISRDNSKNTLYLQMNSLRAEDTAVYYCARDTGVYWGQGTLVTVSS
VL: not shown
B8: 3.1545.1 (antibody, V domains shown)
VH: EVQLVESGGGSVQPGGSLRLSCAASGFTFSSYSMNWVRQAPGKGLEWVSIISSRSSIIHYADSVKGRFTISRDNAKNSLYLQMNSLRDEDTAVYYCARPKVGGGMDVWGQGTTVTVSS
VL: DIQMTQSPSSLSASVGDRVTITCRASQGISNYLAWYQQKPGKFPELLIYAASTLQSGVPSRFSGSGSGTDFTLTISSLQPEDVATYYCQKYNRAPFTFGPGTKVDIK
B9: 2.23.1 (antibody, V domains shown)
VH: QVQLVESGGGLVKPGGSLRLSCAASGFTFSDYYMSWIRQAPGKGLEWVSYISSSGSTIYYADSVKGRFTISRDNAKNSLYLQMNSLRAEDTAVYYCARDRTYYFGSGSYEGMDVWGQGTTVTVSS
VL: EILMTQSPATLSVSPGERATLSCRASQSVYSNLAWYQQKPGQAPRLLISGASTRATGIPARFSGSGSGTEFTLTISSLQSEDFAVYYCQQYYNWPWTFGQGTKVEIK
B10: 2.46.1 (antibody, V domains shown)
VH: QVQLVQSGAEVKKPGASVKVSCKASGNTFTGYGISWVRQAPGQGLEWMGWISAYNGNTNYAQNLQGRVTMTTDTSTSTAYMELRSLRSDDTAVYYCARRDYDILTGYYNGFDPWGQGTLVTVSS
VL: DIQMTQSPSSLSASVGDRVTITCRASQGIRNDLGWYQQKPGKAPKRLIYAASSLQSGVPSRFSGSGSGTEFTLTISSLQPEDFATYYCLQHKSYPLTFGGGTKVEIK
B11: 2.98.1 (antibody, V domains shown)
VH: QVQLVQSGAEVKKPGASVKVSCKASGYTLTRYGISWVRQAPGQGLEWMGWISAYNGNTNYAQKLQGRVTMTTDTSTSTAYMELRSLRSDDTAVYYCARRDYDILTGYYNGFDPWGQGTLVTVSS
VL: DIQMTQSPSSLSASVGDRVTITCRASQGIRNDLGWYQQKPGKAPKRLIYAASSLQSGVPSRFSGSGSGTEFTLTISSLQPEDFATYYCLQHKSYPLTFGGGTKVEIK
B12: 2.67.1 (antibody, V domains shown)
VH: QVQLVQSGAEVKKPGASVKVSCKASGYTLTRYGISWVRQAPGQGLEWMGWISAYNGNTNYAQKLQGRVTMTTDTSTSTAYMELRSLRSDDTAVYYCARRDYDILTGYYNGFDPWGQGTLVTVSS
VL: DIQMTQSPSSLSASVGDRVTITCRASQGIRNDLGWYQQKPGKAPKRLIYAASSLQSGVPSRFSGSGSGTEFTLTISSLQPEDFATYYCLQHKSYPLTFGGGTKVEIK
B13: 2.133.1 (antibody, V domains shown)
VH: QVQLQESGPGLVKPSETLSLTCTVSGGSISNYYWNWIRQSPGKGLEWIGDIYYSGSTNYNPSLKSRVTISVDTSKNQFSLKLSSVTTADTAVYYCARDGELANYYGSGSYQFYYYYGMDVWGQGTTVTVSS
VL: DILMTQSPSSLSASVGDRVTITCRASQGIRNDLGWYQQKPGKAPKRLIYAASSLQSGVPSRFSGSGSGTEFTLTISSLQPEDFATYYCLQHNSNPFTFGPGTKVDIK
B14: 2.225.1 (antibody, V domains shown)
VH: QVQLVQSGVEVKKPGASVKVSCKASGYTLTRYGISWVRQAPGQGLEWMGWISAYNGNTNYAQKLQGRVTMTTDTSTSTAYMELRSLRSDDTAVYYCARRDYDILTGYYNGFDPWGQGTLVTVSS
VL: DIQMTQSPSSLSASVGDRVTITCRASQGIRNDLGWYQQKPGKAPKRLIYAASSLQSGVPSRFSGSGSGTEFTLTISSLQPEDFATYYCLQHKSYPLTFGGGTKVEIK

The target in one test is T1, IL-17RA.HIS (extracellular domain of human IL-17RA fused to a polyhistidine tag) (human, UniProt Q96F46 33-320).
T1 construct: extracellular domain
As to the kind of experiment: co-immunoprecipitation on Protein G beads, Western blot with anti-IL-17RA. (In western blotting, separated proteins are transferred to a membrane and probed.)
As to B1, the binding result is given as “binds”.

A further test concerns the target T2, human IL-17RA on cells (human PBMC; human foreskin fibroblasts) (human, UniProt Q96F46 33-866). As to the kind of experiment: cell-based or functional assay.
Regarding B2, the “% Inhibition of IL-5 production (TSLP treated human PBMC + IL-2 + IL-25), inhibitor 10 micrograms/mL” value worked out at 86%.

For the molecule B3, the “% Inhibition of IL-5 production (TSLP treated human PBMC + IL-2 + IL-25), inhibitor 10 micrograms/mL” value worked out at 100%.

Another test has as its target T2, human IL-17RA on cells (human PBMC; …). As to the kind of experiment: cell-based or functional assay. The source holds these as a separate data set.
As for B2, the “% Inhib. of IL-5 production (TSLP treated human PBMC + IL-2 + IL-25), Expt. 2” value (from here on “% Inhib. of IL-5 production … Expt. 2”) came to 77% and the “% Inhib. of IL-5 production (TSLP treated human PBMC + IL-2 + IL-25), Expt. 3” value (“% Inhib. of IL-5 production … Expt. 3” below) came out at 100%.

Regarding B4, the “% Inhib. of IL-5 production … Expt. 3” value came to 69%.

In the case of B5, the “% Inhib. of IL-5 production (TSLP treated human PBMC + IL-2 + IL-25), Expt. 1” value (shortened to “% Inhib. of IL-5 production … Expt. 1”) stood at 28%; the “% Inhib. of IL-5 production … Expt. 2” value was 72%; the “% Inhib. of IL-5 production … Expt. 3” value stood at 45%.

B6: the “% Inhib. of IL-5 production … Expt. 1” value was determined as 0% and the “% Inhib. of IL-5 production … Expt. 3” value turned out to be 11%.

As to B3, the “% Inhib. of IL-5 production … Expt. 1” value amounted to 69%; the “% Inhib. of IL-5 production … Expt. 2” value was found to be 82%; the “% Inhib. of IL-5 production … Expt. 3” value is 74%.

For B7, the “% Inhib. of IL-5 production … Expt. 1” value was found to be 0%; the “% Inhib. of IL-5 production … Expt. 2” value came out at 41%; the “% Inhib. of IL-5 production … Expt. 3” value was 9%.

As for B8, the “% Inhib. of IL-5 production … Expt. 1” value came out at 0%; the “% Inhib. of IL-5 production … Expt. 2” value stood at 43%; the “% Inhib. of IL-5 production … Expt. 3” value worked out at 0%.

As for B9, the “% Inhib. of IL-5 production … Expt. 1” value stood at 0% and the “% Inhib. of IL-5 production … Expt. 3” value was 0%.

In the case of B10, the “% Inhib. of IL-5 production … Expt. 1” value stood at 0%; the “% Inhib. of IL-5 production … Expt. 2” value turned out to be 6%; the “% Inhib. of IL-5 production … Expt. 3” value came to 0%.

For B11, the “% Inhib. of IL-5 production … Expt. 1” value worked out at 0%; the “% Inhib. of IL-5 production … Expt. 2” value turned out to be 79%; the “% Inhib. of IL-5 production … Expt. 3” value worked out at 0%.

With B12, the “% Inhib. of IL-5 production … Expt. 1” value was found to be 0%; the “% Inhib. of IL-5 production … Expt. 2” value came to 13%; the “% Inhib. of IL-5 production … Expt. 3” value is 3%.

For B13, the “% Inhib. of IL-5 production … Expt. 1” value was found to be 0%; the “% Inhib. of IL-5 production … Expt. 2” value was determined as 16%; the “% Inhib. of IL-5 production … Expt. 3” value was found to be 28%.

For the molecule B14, the “% Inhib. of IL-5 production … Expt. 1” value worked out at 0% and the “% Inhib. of IL-5 production … Expt. 3” value is 0%.
